Data as given in the supplement of paper PMC9732359.
± gives the uncertainty stated by the source.

Test: protein stability index of a GFP-peptide fusion (yeast GPS) (PSI 1-4); higher = more stable; sorted into four equal gates, so the index is relative within each strain
Summary of the method: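 The protein stability index of a peptide was calculated by multiplying its read frequency in each gate by that gate's number and adding the products. The peptides were tiled 17-residue stretches of yeast proteins, fused downstream of GFP on a Cherry-expressing plasmid and carried in yeast as a pooled library. Mid-log cultures in leucine-free medium were sorted into four equal gates by GFP/Cherry ratio, and each gate's plasmids were PCR-amplified and Illumina-sequenced.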

Sequence	protein stability index (doa10∆)	protein stability index (pdr5∆)	protein stability index (san1∆)	protein stability index (ubr1∆)
DGVTHALYPQEARLRNL [RPB2]	3.22 ± 0.27	3.06 ± 0.22	3.23 ± 0.13	
VPPMKLAYSKIVNGQTF [YMR129W/POM152]	1.37 ± 0.068	1.48 ± 0.072	1.09 ± 0.12	1.65 ± 0.053
NYNDLIVNYEDLATTQA [BRN1]	2.98 ± 0.07	3.1 ± 0.087	3.34 ± 0.047	3.27 ± 0.061
VPVANQFINLAGYKKLG [QCR7]	1.97 ± 0.14	2.5 ± 0.13	1.94 ± 0.17	2.48 ± 0.11
KFNNTQRESQIGAAELN [SNF12]	3.01 ± 0.097	3.03 ± 0.14	2.87 ± 0.057	3.38 ± 0.09
IVTKDGVRKEFYELKRD [PRE7]	2.35 ± 0.093	2.16 ± 0.066	3.04 ± 0.082	3.16 ± 0.07
ASMLGLFVFTEGWPKFQ [QCR10]	1.79 ± 0.1	1.96 ± 0.099		2.82 ± 0.2
AESEWNGVNVQTLKGVG [RPC37]	1.23 ± 0.075	1.79 ± 0.14		1.13 ± 0.18
ASINTSATVKTSDLLGS [ECM29]	3.24 ± 0.24	2.96 ± 0.21		3.25 ± 0.21
ETQEIKENDTVMNTKLL [ESC2]	2.85 ± 0.086	3 ± 0.063	2.88 ± 0.1	3.18 ± 0.055
QPVNINLDSSITQDGKF [YMR129W/POM152]	2.92 ± 0.098	3.18 ± 0.084	3.07 ± 0.048	3.04 ± 0.059
IHSMNENPTPEKGNAKM [SIR3]	2.94 ± 0.087	2.67 ± 0.069	3.03 ± 0.059	2.87 ± 0.048
TKKPLMVKNVKPSSPPD [SIR4]	2.93 ± 0.061	2.66 ± 0.039	2.55 ± 0.058	2.69 ± 0.05
GSQFIVVSLKEGMFANA [SMC2]		3.64 ± 0.24	3.44 ± 0.2	3.4 ± 0.057
YPVRIPRLDTSKEFSAY [YJR042W/NUP85]	2.84 ± 0.077	2.4 ± 0.061	2.51 ± 0.075	2.91 ± 0.058
KAAAGAGSAALKIIHDT [RPO31]	3.45 ± 0.13	1.8 ± 0.17	1.72 ± 0.13	1.77 ± 0.18
LRKIQALRDVKNNNNAN [GAL11]	3.05 ± 0.077	2.87 ± 0.097	3.15 ± 0.1	3.11 ± 0.071
MCHIVRKFHELNDHIDD [GRR1]	2.13 ± 0.053	2.31 ± 0.071	2.18 ± 0.079	1.72 ± 0.04
FDISMADLSSSEEEEDE [SSN2]	3.14 ± 0.079	3.13 ± 0.077	3.11 ± 0.1	2.45 ± 0.063
IYSRDIGAELKREESES [SNF2]	3.06 ± 0.087	3.19 ± 0.086	3.08 ± 0.066	3.01 ± 0.071
LYKLNDKIAVAVAGLTA [PRE9]	2.29 ± 0.056	2.14 ± 0.052	2.18 ± 0.095	2.31 ± 0.043
SSSPLAMSETLSKVSLL [PRE8]	2.53 ± 0.071	2.83 ± 0.084	2.67 ± 0.1	2.32 ± 0.059
NMGMNNMNNGGKELDSL [PGD1]	3.54 ± 0.28	3.64 ± 0.24	3.24 ± 0.11	3.24 ± 0.082
KIALGSPIVNVLEDVYR [RRI2]	2.17 ± 0.15	2.96 ± 0.15	2.31 ± 0.15	2.77 ± 0.098
LAANYLNIKPLLDAGCK [SKP1]	1.83 ± 0.076	2.19 ± 0.081	1.57 ± 0.12	2.23 ± 0.09

Sequence	protein stability index (doa10∆)	protein stability index (pdr5∆)	protein stability index (san1∆)	protein stability index (ubr1∆)
AGTTDNSFIKANLPWLG [RPN2]	1.48 ± 0.1	1.72 ± 0.064	1.39 ± 0.086	1.36 ± 0.065
TVKTNDELMVIYISNLV [RPN8]	1.66 ± 0.12	1.5 ± 0.063	1.51 ± 0.15	1.29 ± 0.078
DMLTWVDSNLPDDEKFT [RPC40]	2.92 ± 0.074	3.14 ± 0.063	2.56 ± 0.16	3.26 ± 0.074
GTENTERPPLLPILPIQ [YOR098C/NUP1]	2.42 ± 0.17	3.08 ± 0.17		
KYNAFIASEVLIKQVPR [RPL1A]	1.73 ± 0.085	1.57 ± 0.06	1.39 ± 0.15	1.66 ± 0.045
LAELINMTTIADRNDDD [SRB6]	2.73 ± 0.066	2.64 ± 0.078	2.75 ± 0.062	2.78 ± 0.076
QQQQQQQQQQQNNSTGS [SSN2]	2.58 ± 0.06	2.78 ± 0.049	2.52 ± 0.11	2.85 ± 0.065
LPYERHMISQEGIKETQ [SWI1]	1.22 ± 0.066	1.23 ± 0.073	1.3 ± 0.14	1.27 ± 0.065
SELAPIEEHPTVVDAID [IRR1]		3.62 ± 0.19	3.25 ± 0.11	3.05 ± 0.071
LRSTIANLLQINVDNDP [YML103C/NUP188]	2.21 ± 0.1	1.4 ± 0.13		1.15 ± 0.15
AVKRGTCAVGVKGKNCV [PRE6]	1.06 ± 0.11	1.62 ± 0.18	1.39 ± 0.27	2.51 ± 0.17
QNTSNMNAGGLFGAKPQ [YGR119C/NUP57]	2.08 ± 0.055	3.05 ± 0.063	3.34 ± 0.052	2.17 ± 0.076
AAPAGVAGGVAGGEAGE [RPP1A]	1.91 ± 0.16	1.8 ± 0.18	1.66 ± 0.28	
DIVPYFLKHNGEEDAVD [RPN1]	3.26 ± 0.12	3.27 ± 0.18	2.95 ± 0.17	3.22 ± 0.094
DVMDELITSSARKELPI [SIR3]		2.26 ± 0.13	2.7 ± 0.27	2.42 ± 0.18
DGTGVRVIVAGTLDINP [FAS1]	2.36 ± 0.068	2.87 ± 0.071	2.99 ± 0.065	2.59 ± 0.061
VSQQPLSRGYTCPGLSL [ECM29]	3.02 ± 0.056	2.97 ± 0.04	3.02 ± 0.051	2.93 ± 0.044
KSPPQFFYNISSIHWNN [SIN4]	2.15 ± 0.042	1.89 ± 0.039	2.17 ± 0.065	2.11 ± 0.042
TSNNETNNGNDDNETEN [GRR1]	3.03 ± 0.074	3.28 ± 0.077	3.14 ± 0.053	2.92 ± 0.055
FIYDTEKNGGLGWDLDA [FAS2]	3.21 ± 0.088	2.96 ± 0.12	3.31 ± 0.051	2.52 ± 0.054
LVASAKGLQTVVVEEDA [RPL31A]	2.48 ± 0.091	2.51 ± 0.1	2.54 ± 0.087	2.42 ± 0.085
ANRSRFNNEAPPQTRKF [SMB1]	3.05 ± 0.083	3.03 ± 0.049	2.87 ± 0.069	3.26 ± 0.047
KNFDMLNSMEKDRISHE [PCI8]	2.33 ± 0.069	2.31 ± 0.076	2.35 ± 0.08	2.4 ± 0.043
LVFILAVVGNNMLLDPA [RRP42]	1.56 ± 0.088	1.39 ± 0.076	1.94 ± 0.12	1.81 ± 0.063
ALTRGEALLVVLVSSVT [RPS12]		3.63 ± 0.26	3.52 ± 0.24	3.29 ± 0.26

Sequence	protein stability index (doa10∆)	protein stability index (pdr5∆)	protein stability index (san1∆)	protein stability index (ubr1∆)
LLWTPKKLEITSDGALS [RPR2]	2.09 ± 0.047	2.42 ± 0.048	2.61 ± 0.044	2.4 ± 0.034
IDEVFSWYLNTFDGIRM [GRR1]	2.42 ± 0.049	1.83 ± 0.039	2.14 ± 0.062	1.88 ± 0.039
VTWRTFTGDFLRRVEER [FAS1]	2.79 ± 0.12	1.78 ± 0.096	1.96 ± 0.12	1.24 ± 0.15
KDGAKFIEVRNFLGDKK [RPL9A]				1.35 ± 0.27
VDEPMTSAVELGAIEQI [YJL039C/NUP192]	3.41 ± 0.3	3.66 ± 0.17	3 ± 0.16	2.87 ± 0.28
TGRLFQVEYALEAIKQG [PRE5]	2.94 ± 0.11	2.5 ± 0.15	3.16 ± 0.17	2.26 ± 0.12
ISKRKEELEEEFRKKLK [YIL149C/MLP2]	3.49 ± 0.11	3.35 ± 0.1	3.06 ± 0.089	3.67 ± 0.11
VEDTLHVNKRKRVSGTS [YOR098C/NUP1]	1.42 ± 0.078	1.92 ± 0.13	1.73 ± 0.15	1.52 ± 0.077
LIEILRLRALQLYFQKN [RRI2]	1.17 ± 0.049	1.28 ± 0.072	1.26 ± 0.12	1.04 ± 0.076
VPHYNRLDSYKVIEQPI [RPL25]	1.8 ± 0.095	2.21 ± 0.11	2.02 ± 0.11	2.21 ± 0.11
PSPISHVAEIRSALEKG [RPB2]	1.68 ± 0.076	1.93 ± 0.066	1.68 ± 0.09	1.76 ± 0.053
EEREAAASKVKLEEESK [RPC53]	3.29 ± 0.081	3.43 ± 0.095	3.37 ± 0.069	3.25 ± 0.063
IPFQTLYRSIESGEFDF [YJL039C/NUP192]	1.95 ± 0.061	2.27 ± 0.062	2.11 ± 0.1	1.99 ± 0.032
NINAKMETRINILLRER [YIL149C/MLP2]	2.98 ± 0.18	3.35 ± 0.12	2.61 ± 0.12	3.15 ± 0.1
MKYTQYPNSSKLKRNSD [LIN1]	3.17 ± 0.089	3.03 ± 0.079	2.99 ± 0.05	3.14 ± 0.094
MAAEKILTPESQLKKSK [RPL7A]	3.07 ± 0.11	3.28 ± 0.28	3.25 ± 0.2	
LYRLSTPLRDEVTDKNY [PRP8]	3.13 ± 0.096	2.88 ± 0.066	3.02 ± 0.067	3.11 ± 0.059
ILDGLTVRLVNLFSSTG [SRB2]	3.1 ± 0.15	3.03 ± 0.16		
EHEEKEKERETNKKGIK [RPN2]	3.32 ± 0.24	3.36 ± 0.1	3.33 ± 0.16	3.4 ± 0.25
MVKGLLKSFTESTAGSA [ECM29]	3.34 ± 0.26	2.97 ± 0.18	2.81 ± 0.11	3.34 ± 0.096
GWYHSHPGFGCWLSSVD [RPN11]	2.72 ± 0.12	3.09 ± 0.072	2.35 ± 0.087	2.64 ± 0.12
FIENFLTNDTFEKKLSI [YML103C/NUP188]	3.18 ± 0.22	3.12 ± 0.12	3.2 ± 0.18	3 ± 0.093
ESKGNAFKHKRALVEHI [RPL19A]	3.36 ± 0.087	3.38 ± 0.1	3.44 ± 0.047	3.29 ± 0.054
ITGEDEVLCSRIIEKSV [RRP45]	2 ± 0.051	2.45 ± 0.054	2.1 ± 0.098	1.89 ± 0.059
KSMKYVKKILPLYARYI [ECM29]	1.38 ± 0.093	1.19 ± 0.069		1.18 ± 0.1
